Key:
[1] = target: the molecule itself; assay: SEC-MALS; CTNNBL1 (full length or [77–563]) alone; also in high salt buffer (0.5 M NaCl) or with CWC15[80–229] added; Supplementary Figure S7
CWC15[80–229] = target: T1, CWC15[80–229] (human, UniProt Q9P013 80-229); assay: SEC-MALS; mixture of purified His-CTNNBL1[77–563], CDC5L[1–195] and CWC15[80–229]; settings: both partners purified
T1 construct: Tag cleaved off by HRV 3C protease for gel filtration, crosslinking and HDX; source: E. coli BL21 Rosetta (DE3)pLysS, purified (Glutathione-Sepharose 4B, HRV 3C cleavage, Resource Q)
T1 sequence (looked up): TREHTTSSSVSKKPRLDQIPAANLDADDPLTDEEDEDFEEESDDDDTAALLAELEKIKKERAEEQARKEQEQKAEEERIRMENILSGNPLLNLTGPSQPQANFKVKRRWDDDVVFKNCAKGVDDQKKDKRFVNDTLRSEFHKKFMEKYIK

[2] = target: T2, full-length recombinant His tagged CTNNBL1 (human, UniProt Q8WYA6 1-563); assay: pull-down; His-CTNNBL1 (full length or [77–563]) as bait on Ni-NTA resin; 10–20 μg of each purified protein in pull down buffer, 1 h at 4°C; eluates on SDS-PAGE, Instant Blue; settings: both partners purified
T2 construct: Homotrimer when alone in solution by SEC-MALS (186 kDa); also called His-CTNNBL1; full-length CTNNBL1; source: E. coli BL21 Rosetta (DE3)pLysS, purified (Ni-NTA, Resource Q)
T2 sequence (looked up): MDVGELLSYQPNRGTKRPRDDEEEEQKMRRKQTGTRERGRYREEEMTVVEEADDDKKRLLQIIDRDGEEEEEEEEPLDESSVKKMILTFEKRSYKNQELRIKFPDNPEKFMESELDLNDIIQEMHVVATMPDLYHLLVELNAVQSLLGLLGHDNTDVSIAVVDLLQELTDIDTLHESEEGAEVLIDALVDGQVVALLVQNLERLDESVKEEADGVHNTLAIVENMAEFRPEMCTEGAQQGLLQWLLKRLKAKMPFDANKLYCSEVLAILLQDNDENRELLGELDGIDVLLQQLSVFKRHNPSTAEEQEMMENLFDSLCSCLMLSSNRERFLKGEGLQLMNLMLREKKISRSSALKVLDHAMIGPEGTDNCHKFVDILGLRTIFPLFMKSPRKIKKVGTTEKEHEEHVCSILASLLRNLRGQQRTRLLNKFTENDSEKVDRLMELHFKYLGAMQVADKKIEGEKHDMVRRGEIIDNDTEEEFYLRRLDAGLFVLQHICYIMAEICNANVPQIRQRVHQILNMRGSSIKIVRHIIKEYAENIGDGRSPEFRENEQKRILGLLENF

B1: His-CTNNBL1[77–563] (domain or fragment, human, UniProt Q8WYA6 77-563, looked up)
chain: LDESSVKKMILTFEKRSYKNQELRIKFPDNPEKFMESELDLNDIIQEMHVVATMPDLYHLLVELNAVQSLLGLLGHDNTDVSIAVVDLLQELTDIDTLHESEEGAEVLIDALVDGQVVALLVQNLERLDESVKEEADGVHNTLAIVENMAEFRPEMCTEGAQQGLLQWLLKRLKAKMPFDANKLYCSEVLAILLQDNDENRELLGELDGIDVLLQQLSVFKRHNPSTAEEQEMMENLFDSLCSCLMLSSNRERFLKGEGLQLMNLMLREKKISRSSALKVLDHAMIGPEGTDNCHKFVDILGLRTIFPLFMKSPRKIKKVGTTEKEHEEHVCSILASLLRNLRGQQRTRLLNKFTENDSEKVDRLMELHFKYLGAMQVADKKIEGEKHDMVRRGEIIDNDTEEEFYLRRLDAGLFVLQHICYIMAEICNANVPQIRQRVHQILNMRGSSIKIVRHIIKEYAENIGDGRSPEFRENEQKRILGLLENF
notes: Homotrimer when alone in solution by SEC-MALS (165 kDa); also called N-terminal truncation mutant of CTNNBL1; source: E. coli BL21 Rosetta (DE3)pLysS, purified (Ni-NTA, Resource Q)
stoichiometry N [1]: 3

B2: CDC5L[1–195] (domain or fragment, human, UniProt Q99459 1-195, looked up)
chain: MPRIMIKGGVWRNTEDEILKAAVMKYGKNQWSRIASLLHRKSAKQCKARWYEWLDPSIKKTEWSREEEEKLLHLAKLMPTQWRTIAPIIGRTAAQCLEHYEFLLDKAAQRDNEEETTDDPRKLKPGEIDPNPETKPARPDPIDMDEDELEMLSEARARLANTQGKKAKRKAREKQLEEARRLAALQKRRELRAAG
notes: Tag cleaved off by TEV protease for gel filtration, crosslinking and HDX; source: E. coli BL21 Rosetta (DE3)pLysS, purified (amylose resin, TEV cleavage, Resource S)
stoichiometry N (CWC15[80–229]): 1

B3: full-length GST-CWC15 (natural protein, human, UniProt Q9P013 1-229, looked up)
chain: MTTAARPTFEPARGGRGKGEGDLSQLSKQYSSRDLPSHTKIKYRQTTQDAPEEVRNRDFRRELEERERAAAREKNRDRPTREHTTSSSVSKKPRLDQIPAANLDADDPLTDEEDEDFEEESDDDDTAALLAELEKIKKERAEEQARKEQEQKAEEERIRMENILSGNPLLNLTGPSQPQANFKVKRRWDDDVVFKNCAKGVDDQKKDKRFVNDTLRSEFHKKFMEKYIK
notes: source: E. coli BL21 Rosetta (DE3)pLysS, purified (Glutathione-Sepharose 4B)
binding result [2]: binds

Reference: PMC4538830, “CTNNBL1 facilitates the association of CWC15 with CDC5L and is required to maintain the abundance of the Prp19 spliceosomal complex” (Nucleic Acids Research, 2015)
